Assay results reported in IntAct's records for PubMed 37100772.

B1: Nucleoprotein (Human coronavirus 229E), P15130 (parent)
chain: MATVKWADASEPQRGRQGRIPYSLYSPLLVDSEQPWKVIPRNLVPINKKDKNKLIGYWNVQKRFRTRKGKRVDLSPKLHFYYLGTGPHKDAKFRERVEGVVWVAVDGAKTEPTGYGVRRKNSEPEIPHFNQKLPNGVTVVEEPDSRAPSRSQSRSQSRGRGESKPQSRNPSSDRNHNSQDDIMKAVAAALKSLGFDKPQEKDKKSAKTGTPKPSRNQSPASSQTSAKSLARSQSSETKEQKHEMQKPRWKRQPNDDVTSNVTQCFGPRDLDHNFGSAGVVANGVKAKGYPQFAELVPSTAAMLFDSHIVSKESGNTVVLTFTTRVTVPKDHPHLGKFLEELNAFTREMQQHPLLNPSALEFNPSQTSPATAEPVRDEVSIETDIIDEVN

Variants of: B1
Conditions: with pabp1_human PABPC1, P11940
Chain of pabp1_human PABPC1, P11940 (P11940 whole entry): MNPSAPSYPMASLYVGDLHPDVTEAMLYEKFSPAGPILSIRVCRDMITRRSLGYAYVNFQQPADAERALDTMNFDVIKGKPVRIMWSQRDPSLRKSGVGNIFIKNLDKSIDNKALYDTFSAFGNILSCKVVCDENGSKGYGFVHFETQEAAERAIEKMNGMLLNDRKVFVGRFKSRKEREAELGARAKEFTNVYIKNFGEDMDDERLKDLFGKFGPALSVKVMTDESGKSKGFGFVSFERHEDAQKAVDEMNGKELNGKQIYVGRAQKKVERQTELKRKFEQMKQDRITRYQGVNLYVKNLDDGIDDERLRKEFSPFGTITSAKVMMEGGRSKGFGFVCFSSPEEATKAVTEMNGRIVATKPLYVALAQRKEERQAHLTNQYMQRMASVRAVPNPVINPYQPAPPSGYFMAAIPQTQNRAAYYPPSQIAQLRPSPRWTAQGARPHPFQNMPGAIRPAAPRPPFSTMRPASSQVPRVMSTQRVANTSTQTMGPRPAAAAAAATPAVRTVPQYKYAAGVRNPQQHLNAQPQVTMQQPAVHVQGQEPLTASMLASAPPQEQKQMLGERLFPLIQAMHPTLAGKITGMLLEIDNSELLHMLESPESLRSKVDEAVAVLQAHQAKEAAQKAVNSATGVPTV

Q: With L354A;N355G;P356G;A358G;F361A;N362A;P363G as the variant, how does the “effect of a mutation on the interaction” value read?
A: disrupting interaction strength
